Data on six molecules can be found in patent US20250027068A1.

The labels stand for the following.
B1: VRT-58 (Fc fusion)
chain: VTSVWTKGVTPPTDFIKGEDVFHAPYKAGQGWYDITKTFNGKDNLLCGAATAGNMLHWWFDQNKEYIEAYLKKHPEKQKIIFNNQELFDLKAAINTKGSQKNSELFNYFRDKAFPNLSARRLGVFPDLVLDMFINGYYLNVTKTQTTDVNRTYQEKDKRGGIFDAVFTRGVQSKLLTSRHDLKNKGLKEISDLIKQELTEGKALGLSHTYANVRINHVINLWGADFDSDGNLKAIYVTDSDSNASIGMKKYFVGVNSAGKVAISAKEIKEDNIGAQVLGLFTLSTGQDIWNQTNDKTHTCPPCPAPEAAGAPSVFLFPPKPKDTLMISRTPEVTCVVVDVSHEDPEVKFNWYVDGVEVHNAKTKPREEQQNSTYRVVSVLTVLHQDWLNGKEYKCKVSNKALKAPIEKTISKAKGQPREPQVYTLPPSRDELTKNQVSLTCLVKGFYPSDIAVEWESNGQPENNYKTTPPVLDSDGSFFLYSKLTVDKSRWQQGNVFSCSVMHEALHNHYTQKSLSLSPG
B2: VRT-59 (Fc fusion)
chain: VTSVWTKGVTPPADFTQGEDVFHAPYVANQGWYDITKTFNGKDNLLCGAATAGNMLHWWFDQNKEYIEAYLKKHPEKQKIIFNNQELFDLKAAINTKGSQKNSELFNYFRDKAFPNLSARRLGVFPDLVLDMFINGYYLNVTKTQTTDVNRTYQEKDKRGGIFDAVFTRGVQSKLLTSRHDLKNKGLKEISDLIKQELTEGKALGLSHTYANVRINHVINLWGADFDSDGNLKAIYVTDSDSNASIGMKKYFVGVNSAGKVAISAKEIKEDNIGAQVLGLFTLSTGQDIWNQTNDKTHTCPPCPAPEAAGAPSVFLFPPKPKDTLMISRTPEVTCVVVDVSHEDPEVKFNWYVDGVEVHNAKTKPREEQQNSTYRVVSVLTVLHQDWLNGKEYKCKVSNKALKAPIEKTISKAKGQPREPQVYTLPPSRDELTKNQVSLTCLVKGFYPSDIAVEWESNGQPENNYKTTPPVLDSDGSFFLYSKLTVDKSRWQQGNVFSCSVMHEALHNHYTQKSLSLSPG
B3: VRT-54 (Fc fusion)
chain: VTSVWTKGVTPPTDFIKGEDVFHAPYKAGQGWYDITKTFNGKDDLLCGAATAGNMLHWWFDQNKEYIEAYLKKHPEKQKIMFGDQELLDVRKAINTKGSQKNSELFNYFRDKAFPNLSARRLGVMPDLVLDMFINGYYLNVTKTQTTDVNRTYQEKDKRGGIFDAVFTRGDQSKLLTSRHDFKEKGLKEISDLIKQELTEGKALGLSHTYANVRINHVINLWGADFDSDGNLKAIYVTDSDSNASIGMKKYFVGVNSAGKVAISAKEIKEDNIGAQVLGLFTLSTGQDIWNQTNDKTHTCPPCPAPEAAGAPSVFLFPPKPKDTLMISRTPEVTCVVVDVSHEDPEVKFNWYVDGVEVHNAKTKPREEQQNSTYRVVSVLTVLHQDWLNGKEYKCKVSNKALKAPIEKTISKAKGQPREPQVYTLPPSRDELTKNQVSLTCLVKGFYPSDIAVEWESNGQPENNYKTTPPVLDSDGSFFLYSKLTVDKSRWQQGNVFSCSVMHEALHNHYTQKSLSLSPG
B4: VRT-56 (Fc fusion)
chain: VTSVWTKGVTPPADFTQGEDVFHAPYVANQGWYDITKTFNGKDDLLCGAATAGNMLHWWFDQNKEYIEAYLKKHPEKQKIMFGDQELLDVRKAINTKGSQKNSELFNYFRDKAFPNLSARRLGVMPDLVLDMFINGYYLNVTKTQTTDVNRTYQEKDKRGGIFDAVFTRGDQSKLLTSRHDLKNKGLKEISDLIKQELTEGKALGLSHTYANVRINHVINLWGADFDSDGNLKAIYVTDSDSNASIGMKKYFVGVNSAGKVAISAKEIKEDNIGAQVLGLFTLSTGQDIWNQTNDKTHTCPPCPAPEAAGAPSVFLFPPKPKDTLMISRTPEVTCVVVDVSHEDPEVKFNWYVDGVEVHNAKTKPREEQQNSTYRVVSVLTVLHQDWLNGKEYKCKVSNKALKAPIEKTISKAKGQPREPQVYTLPPSRDELTKNQVSLTCLVKGFYPSDIAVEWESNGQPENNYKTTPPVLDSDGSFFLYSKLTVDKSRWQQGNVFSCSVMHEALHNHYTQKSLSLSPG
B5: VRT-55 (Fc fusion)
chain: VTSVWTKGVTPPTDFIKGEDVFHAPYKAGQGWYDITKTFNGKDDLLCGAATAGNMLHWWFDQNKEYIEAYLKKHPEKQKIMFGDQELLDVRKAINTKGSQKNSELFNYFRDKAFPNLSARRLGVMPDLVLDMFINGYYLNVTKTQTTDVNRTYQEKDKRGGIFDAVFTRGDQSKLLTSRHDLKNKGLKEISDLIKQELTEGKALGLSHTYANVRINHVINLWGADFDSDGNLKAIYVTDSDSNASIGMKKYFVGVNSAGKVAISAKEIKEDNIGAQVLGLFTLSTGQDIWNQTNDKTHTCPPCPAPEAAGAPSVFLFPPKPKDTLMISRTPEVTCVVVDVSHEDPEVKFNWYVDGVEVHNAKTKPREEQQNSTYRVVSVLTVLHQDWLNGKEYKCKVSNKALKAPIEKTISKAKGQPREPQVYTLPPSRDELTKNQVSLTCLVKGFYPSDIAVEWESNGQPENNYKTTPPVLDSDGSFFLYSKLTVDKSRWQQGNVFSCSVMHEALHNHYTQKSLSLSPG
B6: VRT-57 (Fc fusion)
chain: VTSVWTKGVTPPTDFIKGEDVFHAPYKAGQGWYDITKTFNGKDNLLCGAATAGNMLHWWFDQNKEYIEAYLKKHPEKQKIIFNNQELFDLKAAINTKGSQKNSELFNYFRDKAFPNLSARRLGVFPDLVLDMFINGYYLNVTKTQTTDVNRTYQEKDKRGGIFDAVFTRGVQSKLLTSRHDFKEKGLKEISDLIKQELTEGKALGLSHTYANVRINHVINLWGADFDSDGNLKAIYVTDSDSNASIGMKKYFVGVNSAGKVAISAKEIKEDNIGAQVLGLFTLSTGQDIWNQTNDKTHTCPPCPAPEAAGAPSVFLFPPKPKDTLMISRTPEVTCVVVDVSHEDPEVKFNWYVDGVEVHNAKTKPREEQQNSTYRVVSVLTVLHQDWLNGKEYKCKVSNKALKAPIEKTISKAKGQPREPQVYTLPPSRDELTKNQVSLTCLVKGFYPSDIAVEWESNGQPENNYKTTPPVLDSDGSFFLYSKLTVDKSRWQQGNVFSCSVMHEALHNHYTQKSLSLSPG

This assay concerns the target pooled human IgG (human). The assay can be described thus: cell-based or functional assay.
In turn, B1 gave an Enzyme Activity Endpoint Assay, Fab′2 of 0 ng/µL; an Enzyme Activity Endpoint Assay, Fc of 191 ng/µL; an Enzyme Activity Endpoint Assay, IgG of 527 ng/µL; an Enzyme Activity Endpoint Assay, scIgG of 236 ng/µL.
As to B2, the Enzyme Activity Endpoint Assay, Fab′2 was 0 ng/µL; the Enzyme Activity Endpoint Assay, Fc was found to be 157 ng/µL; the Enzyme Activity Endpoint Assay, IgG was 726 ng/µL; the Enzyme Activity Endpoint Assay, scIgG was determined as 107 ng/µL.
The corresponding values for B3 are 0 ng/µL, 129 ng/µL, 672 ng/µL and 150 ng/µL.
Take B4: the Enzyme Activity Endpoint Assay, Fab′2 was determined as 0 ng/µL; the Enzyme Activity Endpoint Assay, Fc came to 200 ng/µL; the Enzyme Activity Endpoint Assay, IgG stood at 742 ng/µL; the Enzyme Activity Endpoint Assay, scIgG turned out to be 240 ng/µL.
The molecule B5 came in with an Enzyme Activity Endpoint Assay, Fab′2 of 0 ng/µL; an Enzyme Activity Endpoint Assay, Fc of 120 ng/µL; an Enzyme Activity Endpoint Assay, IgG of 734 ng/µL; an Enzyme Activity Endpoint Assay, scIgG of 109 ng/µL.
On to B6, for which the Enzyme Activity Endpoint Assay, Fab′2 worked out at 0 ng/µL; the Enzyme Activity Endpoint Assay, Fc was found to be 97 ng/µL; the Enzyme Activity Endpoint Assay, IgG came out at 903 ng/µL; the Enzyme Activity Endpoint Assay, scIgG was 27 ng/µL.
